Like-named read-outs stand apart in the source and are kept apart here.

The subject of data set [1] is Her2-positive cells (KPL-4). In kind it is cell-based.
Procedure: Her2-positive cells (KPL-4) were seeded on a 96-well plate to result in a cell count of 1×10^3 cells/well and a culture solution amount of 50 μL/well and were then cultured overnight. […] After the dilution series had been prepared, 50μ of the complex was each added to the cells, and the cells are cultured for 6 to 7 days. […] A reagent was added in accordance with the dosage and administration described in the instruction manual, and the resulting cells were then incubated at 37° C. in a CO2 incubator for 1.5 hours. After that, the absorbance at 450 nm was measured, and the mean value was then calculated, followed by background correction. Thereafter, the control was set at 100%, and the cell proliferation percentage to the control under individual conditions was calculated.
Data set [2] can be described thus: pH conditions of dialysis buffer for tetramer formation (non-reducing electrophoresis, densitometry). In kind it is physicochemical. On the procedure:
Then, the sample was put into dialysis tube and dialyzed with buffers (50 mM sodium phosphate, 400 mM arginine HCl, pH 4.0˜8.0). 100 μL of the sample after refolding was dialyzed at 25° C. for 1 hour using 30 mL of buffer and the Mini Dialysis Kit 1 kD (Cytiva). Thereafter, dialysis was performed at 4° C. for 18 hours with 30 mL of fresh buffer, followed by overnight dialysis at 4° C. with 30 mL of fresh buffer. The post-dialysis samples from each pH condition were analyzed by non-reducing electrophoresis and the result image was shown in FIG. 7. […] As shown in FIG. 7 and Table 2, the monomers were equal to or less than 8% and the tetramers were equal to or more than 92% in pH of 6.0 or less, whereas the percentage of monomers increased at a pH of 6.5 or more. At pH 8.0, the same as the pH of refolding buffer B, 81% of the monomers and 19% of the tetramers were present. […] The theoretical pIs of Anti-HER2 VHH and Cupid moieties were approximately 7.6 and 6.5, respectively. Therefore, it is preferable that a buffer for tetramer formation should be pH 6.0 or less to avoid aggregation induced by the Cupid moiety.

The nature of data set [3]: SPR analysis of interaction between Anti-HER2 VHH-Cupid and Psyche-Duocarmycin (Biacore T200). In kind it is binding. On the procedure: The surface plasmon resonance (SPR) analysis was performed using a Biacore T200 (Cytiva). […] The association and dissociation rate constants were evaluated using Biacore T200 Evaluation Software version 3 (Cytiva) by bivalent analyte model, and KD values were calculated.

A short description of data set [4]: pH conditions of dialysis buffer for tetramer formation (non-reducing electrophoresis, densitometry). Format: physicochemical. Particulars: dialyzed with refolding buffer B (pH 8.0) to remove guanidine hydrochloride.
The subject of data set [5] is Her2-positive cells (KPL-4).
Procedure: Her2-positive cells (KPL-4) were seeded on a 96-well plate to result in a cell count of 1×10^4 cells/well and a culture solution amount of 50 μL/well and were then cultured overnight. […] A reagent was added in accordance with the dosage and administration described in the instruction manual, and the resulting cells were then incubated at 37° C. in a CO2 incubator for 1.5 hours. […] Thereafter, the control was set at 100%, and the cell proliferation percentage to the control under individual conditions was calculated.

B1: Anti-HER2 VHH-Cupid: fusion protein of an anti-HER2 VHH single-domain antibody (SEQ ID NO: 2), Gly-Ser linker and Cupid mutant streptavidin; forms a tetramer (protein)
chain: MQVQLQESGGGSVQAGGSLKLTCAASGYIFNSCGMGWYRQSPGRERELVSRISGDGDTWHKESVKGRFTISQDNVKKTLYLQMNSLKPEDTAVYFCAVCYNLETYWGQGTQVTVSSGGGGSGGGGSGGGGSAEAGITGTWSDQLGDTFIVTAGADGALTGTYENAVGGAESRYVLTGRYDSAPATDGSGTALGWTVAWKNNSKNAHSATTWSGQYVGGADAKINTQWLLTSGTTNANAWKSTLVGHDTFTKVKPSAASHHHHHH
modifications: tetramer
notes: forms a tetramer
For the molecule B1, the “cytotoxic activity compared with FL2 as vector” value in data set [1] and in data set [5] was “stronger cytotoxic activity than FL2” each time. The “Monomer band (%)” value is 4% in data set [2] (dialysis buffer pH 4.0); 6% in data set [2] (dialysis buffer pH 5.0); 8% in data set [2] (dialysis buffer pH 5.5); 8% in data set [2] (dialysis buffer pH 6.0); 13% in data set [2] (dialysis buffer pH 6.5); 35% in data set [2] (dialysis buffer pH 7.0). The “Monomer band (%)” value in data set [2] (dialysis buffer pH 7.5) is 77%; in data set [2] (dialysis buffer pH 8.0), 81%. Also, the “Tetramer band (%)” value in data set [2] (dialysis buffer pH 4.0) was determined as 96%; in data set [2] (dialysis buffer pH 5.0) it was 94%; in data set [2] (dialysis buffer pH 5.5), 92%; in data set [2] (dialysis buffer pH 6.0), 92%; in data set [2] (dialysis buffer pH 6.5), 87%; in data set [2] (dialysis buffer pH 7.0), 65%. In addition, the “Tetramer band (%)” value in data set [2] (dialysis buffer pH 7.5) is 23%; in data set [2] (dialysis buffer pH 8.0), 19%. Moreover, in data set [2] (dialysis buffers pH 4.0-8.0, FIG. 7), the “tetramer formation of the refolded sample” value is reported as “formed tetramers in pH-dependent manner”. This molecule returned a percentage of monomers in data set [2] (pH of 6.0 or less) of no more than 8%. The percentage of tetramers in data set [2] (pH of 6.0 or less) was no less than 92%. The “association rate constant (Ka1)” value in data set [3] (Anti-HER2 VHH-Cupid captured via anti-histidine antibody, Psyche-Duocarmycin analyte 10 nM to 0.3125 nM, bivalent analyte model) is given as 1.336×10^4 l/Ms. Moreover, the “binding activity to Psyche-Duocarmycin” value in data set [3] (SPR) is “had binding activity to Psyche-Duocarmycin”. In addition, the “oligomeric state after dialysis with refolding buffer B” value in data set [4] is reported as “almost all of the Anti-HER2 VHH-Cupid were monomeric”.

These data come from patent publication US20240374747A1, “FUSION PROTEIN OF VHH ANTIBODY AND STREPTAVIDIN MUTANT” (The University of Tokyo, priority 2023, published 2024).
